Experiment [1] has as its target T1, human GITR-Fc (human, UniProt Q9Y5U5 26-161).
T1 construct: Recombinant GITR-Fc; also called hGITR-Fc; hGITR; not shown: Fc part
T1 sequence (looked up): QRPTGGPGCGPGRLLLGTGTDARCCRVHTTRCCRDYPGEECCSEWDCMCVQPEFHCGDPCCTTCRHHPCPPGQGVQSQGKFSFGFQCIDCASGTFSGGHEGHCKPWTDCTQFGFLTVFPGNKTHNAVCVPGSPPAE
The experiment is described as follows: direct titration ELISA, coated human GITR-Fc, IgG1. As to the method: To coat Greiner Bio-One High bind ELISA plates, target proteins were diluted to 1 μg/ml in carbonate buffer and added at 100 μl per well, at 4° C., o/n. Coated plates were washed 3× with PBS pH7.4, blocked with 1% BSA in PBS (380 μl/well) for 1 hr at RT, then washed 3× with PBS-Tween 20 (PBST). GITR antibodies (100 μl/well; diluted in PBST) were then added and then incubated 1 hr at RT. Plates were then washed 3× with PBST and goat anti-human kappa chain-HRP added (100 μl/well) at RT, for 1 hr. Plates were then washed 3× with PBST and twice with PBS before the addition of 100 μl TMB per well. Reactions were stopped by adding 100 μl 2M H₂SO₄/well and OD was read on a plate reader at 450 nm. IgG binding analysis via ELISA on negatively charged biomolecular surfaces were performed as previously described (see Mouquet et al., 2010, Nature 467: 591-595).
Retention of GITR-binding function in the purified IgG1 proteins was first examined by titration in direct binding ELISA against human GITR-Fc. […] Importantly, the >100-fold loss of binding function in the VH2 IgG family further illustrated that the HCDR1 could not be fully germ-lined a priori to match the native sequence of the human germline HCDR1 found in the framework used for grafting (IGHV3-7).
(ELISA stands for enzyme-linked immunosorbent assay.)

For experiment [2], the target named is T2, cynomolgus monkey GITR at the cell surface (cynomolgus monkey).
T2 construct: whole, on cells; also called cyno GITR+ cells
The experiment is described as follows: flow cytometry, cyno GITR-transfected murine blastoma cells, 10,000-13.7 ng/ml. The method, then: Concentration-dependent binding to GITR at the cell surface was analysed using flow cytometry.
In general terms: A flow cytometer gives signals particle by particle.

The target in experiment [3] is T1, human GITR-Fc. The experiment is described as follows: direct ELISA, IgG at 1 µg/ml. The method, then: (§1) Off-target homologue binding risk for mVH/mVL (FIG. 8A), VH3/VL2 (FIG. 8B) and lead engineered IgG clones G-G10 (FIG. 8C), I-C2 (FIG. 8D) and D-A6 (FIG. 8E) was examined by direct ELISA on GITR-Fc orthologs and a panel of 13 human TNFRSF and immunoglobulin superfamily proteins (as labelled on each X-axis). Binding to human, cyno and murine GITR-Fcs (h/c/mGITR-Fc) was performed at an IgG concentration of 1 μg/ml. Binding to all other proteins was performed at an IgG concentration of 10 μg/ml.
(§2) Anti-GITR antibodies were tested for polyreactivity by ELISA. Purified, recombinant, target and non-target antigens were coated in 96-well Nunc maxisorp plates at 100 ng per well in carbonate buffer, at 4° C. overnight. Plates were then washed 3× with PBS, blocked with 1% BSA in PBS, then washed 3× with PBS-Tween20. A dilution series of primary antibodies was then applied, plates were washed 3× with PBS-Tween20 followed by application of goat anti-human kappa chain-HRP 1:4,000 secondary antibody. Wells were then washed 3× with PBS-Tween20 and 2× with PBS, 100 μl TMB peroxidase substrate was added per well, the was reaction stopped by adding 100 μl 2M H₂SO₄ and absorbances were read at 450 nm. Anti-GITR antibodies were also tested for binding specificity by flow cytometry. HuT78 cells were activated by incubation with anti-CD3/anti-CD28 beads for 3 days. Naïve cells were incubated in media alone. At the end of the incubation the cells were harvested and the beads removed from the activated cells using a magnet. Cells were incubated with viability dye and then stained with anti-GITR antibodies at 4° C. […] Binding of VH1/VI1 and D-A6 IgG1 proteins were detected by subsequent incubation with a PE labelled goat anti-human IgG. Cells were fixed with 4% PFA before being stored in PBS at 4° C. overnight. Cells were analysed the next day using a BD Fortessa flow cytometer running Diva software. Analysis was performed using FlowJo software.

Experiment [4] has as its target T3, cynomolgus monkey GITR-Fc (cynomolgus monkey (Macaca fascicularis)).
T3 construct: also called cyno GITR-Fc; cGITR-Fc
In words: direct ELISA, IgG at 1 µg/ml. The method, then:
as §1, §2

Another experiment has as its target T4, hBAFFR-Fc (human, UniProt Q96RJ3).
T4 construct: recombinant Fc fusion; Member of the panel m8
The experiment is described as follows: direct ELISA on coated protein, IgG at 10 µg/ml, OD 450 nm. As to the method: as §1, §2

The next experiment concerns the target T5, hVCAM-1 (human, UniProt P19320).
T5 construct: purified recombinant protein; Member of the panel m8; the axis also carries a separate label hVCAM-Fc (f6)
T5 sequence (looked up): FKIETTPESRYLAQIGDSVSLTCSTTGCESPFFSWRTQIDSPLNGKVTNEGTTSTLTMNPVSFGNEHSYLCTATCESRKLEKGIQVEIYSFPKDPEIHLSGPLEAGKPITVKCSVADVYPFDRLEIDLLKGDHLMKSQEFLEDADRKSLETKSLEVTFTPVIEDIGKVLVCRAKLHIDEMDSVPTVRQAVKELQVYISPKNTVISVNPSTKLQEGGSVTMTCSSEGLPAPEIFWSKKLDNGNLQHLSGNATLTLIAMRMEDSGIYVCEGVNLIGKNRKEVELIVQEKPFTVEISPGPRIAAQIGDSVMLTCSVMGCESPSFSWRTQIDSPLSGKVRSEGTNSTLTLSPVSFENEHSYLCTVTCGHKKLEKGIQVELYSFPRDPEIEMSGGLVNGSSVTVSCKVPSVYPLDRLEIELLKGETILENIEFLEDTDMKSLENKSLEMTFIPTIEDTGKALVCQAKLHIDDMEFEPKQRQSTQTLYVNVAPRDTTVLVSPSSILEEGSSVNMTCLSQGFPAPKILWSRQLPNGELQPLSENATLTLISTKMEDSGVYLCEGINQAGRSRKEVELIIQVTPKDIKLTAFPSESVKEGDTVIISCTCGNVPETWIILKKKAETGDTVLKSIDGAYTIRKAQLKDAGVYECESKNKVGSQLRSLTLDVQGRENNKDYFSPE
The description is as above. The method, then:
as §1, §2

T4 sequence (Q96RJ3 7-71 limits assumed): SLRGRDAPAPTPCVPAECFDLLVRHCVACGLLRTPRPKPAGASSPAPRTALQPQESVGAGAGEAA

B1: chimeric anti-GITR IgG1 mVH/mVL (6C8 murine v-domains) (antibody, V domains shown)
VH: QVTLKESGPGILKPSQTLSLTCSFSGFSLSTSGMGVGWIRQPSGKGLEWLAHIWWDDDKYYNPSLKSQLTISKDTSRNQVFLKITSVDTADAATYYCARTRRYFPFAYWGQGTLVTVSS
VL: DIVMTQSQKFMSTSVGDRVSVTCKASQNVGTNVAWYQQKPGQSPKALIYSASYRYSGVPDRFTGSGSGTDFTLTINNVHSEDLAEYFCQQYNTDPLTFGAGTKLEIK
notes: Full-length human IgG1, kappa; also called GITR-mVH/mVL; chimeric IgG
For the molecule B1, the EC50 (commonly the concentration at which the effect is half-maximal) with human GITR-Fc [1] was at least 4 ng/mL. Further, in experiment [2], the “concentration at maximum MFI” value is about 1110 ng/mL. For the same molecule, the OD450 nm is over 3 OD450 nm in the experiment with human GITR-Fc [3] and over 1 OD450 nm in experiment [4]. Besides, the binding result in the experiment with hBAFFR-Fc and with hVCAM-1 was “no binding (tested: 10 µg/ml)” throughout.

B2: D-A6 IgG1 (antibody, V domains shown)
VH: EVQLVESGGGLVQPGGSLRLSCAASGFSLSTSGYGVGWVRQAPGKGLEWLAHIWWDDDKYYVDSVKGRFTISRDNAKNSLYLQMNSLRAEDTAVYYCARTRQYFPFAYWGQGTLVTVSS
VL: EIVLTQSPATLSLSPGERATLSCRASQSVGSNLAWYQQKPGQAPRLLIYSASYRYTGIPARFSGSGSGTDFTLTISSLEPEDFAVYYCQQYSTDPLTFGGGTKVEIK
notes: Human IgG1
Take B2: the “concentration at maximum MFI” value in experiment [2] was about 1110 ng/mL. Further, the OD450 nm with human GITR-Fc [3] is over 3 OD450 nm; in experiment [4] it was over 1 OD450 nm. Besides, the binding result with hBAFFR-Fc and with hVCAM-1 was “no binding (tested: 10 µg/ml)” each time.

B3: I-C2 IgG1 (antibody, V domains shown)
VH: EVQLVESGGGLVQPGGSLRLSCAASGFSLSTSGYGVGWVRQAPGKGLEWLAHIWWDDDKYYVDSVKGRFTISRDNAKNSLYLQMNSLRAEDTAVYYCARTRLYFPFAYWGQGTLVTVSS
VL: EIVLTQSPATLSLSPGERATLSCRASQNVGSNLAWYQQKPGQAPRLLIYSASNRYSGIPARFSGSGSGTDFTLTISSLEPEDFAVYYCQQYSTDPLTFGGGTKVEIK
notes: Human IgG1
As for B3, in experiment [2], the “concentration at maximum MFI” value was about 1110 ng/mL. Moreover, the OD450 nm is over 3 OD450 nm in the experiment with human GITR-Fc [3] and over 1 OD450 nm in experiment [4]. Besides, the binding result with hBAFFR-Fc and with hVCAM-1 was “no binding (tested: 10 µg/ml)” each time.

B4: G-G10 IgG1 (antibody, V domains shown)
VH: EVQLVESGGGLVQPGGSLRLSCAASGFSLSTFGYGVGWVRQAPGKGLEWLAHIWWDDDKYYVDSVKGRFTISRDNAKNSLYLQMNSLRAEDTAVYYCARTRQYFPFAYWGQGTLVTVSS
VL: EIVLTQSPATLSLSPGERATLSCRASQSVGTNLAWYQQKPGQAPRLLIYYASYRYTGIPARFSGSGSGTDFTLTISSLEPEDFAVYYCQQYSNDPLTFGGGTKVEIK
notes: Human IgG1
Consider B4, for which the “concentration at maximum MFI” value in experiment [2] is about 1110 ng/mL. For the same molecule, the OD450 nm with human GITR-Fc [3] was over 3 OD450 nm; in experiment [4], over 1 OD450 nm. The binding result in the experiment with hBAFFR-Fc and with hVCAM-1 was “no binding (tested: 10 µg/ml)” throughout.

B5: VH3/VL2 IgG1 (antibody, V domains shown)
VH: EVQLVESGGGLVQPGGSLRLSCAASGFSLSTSGMGVGWVRQAPGKGLEWLAHIWWDDDKYYVDSVKGRFTISRDNAKNSLYLQMNSLRAEDTAVYYCARTRRYFPFAYWGQGTLVTVSS
VL: EIVLTQSPATLSLSPGERATLSCRASQNVGTNVAWYQQKPGQAPRLLIYSASYRYSGIPARFSGSGSGTDFTLTISSLEPEDFAVYYCQQYNTDPLTFGGGTKVEIK
notes: Human IgG1; template of the mutagenesis library; also called G-VH3/VL2; VH3 family
For the molecule B5, the “concentration at maximum MFI” value in experiment [2] is about 1110 ng/mL. Further, the OD450 nm was over 3 OD450 nm with human GITR-Fc [3] and over 1 OD450 nm in experiment [4]. Besides, the binding result with hBAFFR-Fc and with hVCAM-1 was “no binding (tested: 10 µg/ml)” in each case.

The values are drawn from patent US20190375846A1 (ULTRAHUMAN ONE, published 2019).
